According to article PMC8141032 (Oncogene, 2021):

B1: recombinant Sumo-tagged SWIRM (amino acids 417–580 of BAF155) (domain or fragment)
chain: TAGGKEDEDPAKGDQSRSVDLGEDNVTEQTNHIIIPSYASWFDYNCIHVIERRALPEFFNGKNKSKTPEIYLAYRNFMIDTYRLNPQEYLTSTACRRNLTGDVCAVMRVHAFLEQWGLVNYQVDPESRPMAMGPPPTPHFNVLADTPSGLVPLHLRSPQVPAAQ
B2: recombinant SWIRM domain (amino acids 417–546 of BAF155) (domain or fragment)
chain: TAGGKEDEDPAKGDQSRSVDLGEDNVTEQTNHIIIPSYASWFDYNCIHVIERRALPEFFNGKNKSKTPEIYLAYRNFMIDTYRLNPQEYLTSTACRRNLTGDVCAVMRVHAFLEQWGLVNYQVDPESRPM

Molecular target: recombinant Flag-tagged SNF5 (UniProt Q12824 1-385)
Sequence (Q12824 whole entry): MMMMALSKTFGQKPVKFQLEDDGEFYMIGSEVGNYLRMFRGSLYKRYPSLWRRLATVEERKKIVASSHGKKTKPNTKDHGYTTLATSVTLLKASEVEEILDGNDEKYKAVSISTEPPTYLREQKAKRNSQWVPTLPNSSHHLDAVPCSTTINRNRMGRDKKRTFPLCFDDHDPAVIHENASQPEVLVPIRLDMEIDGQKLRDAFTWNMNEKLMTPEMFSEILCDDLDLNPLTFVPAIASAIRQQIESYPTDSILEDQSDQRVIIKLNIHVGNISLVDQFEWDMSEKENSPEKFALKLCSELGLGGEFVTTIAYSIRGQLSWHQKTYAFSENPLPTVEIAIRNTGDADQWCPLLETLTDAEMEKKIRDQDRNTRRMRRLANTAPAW
Experiment: pull-down

Binder	binding result
B1	binds
B2	binds
